Data reported in patent US12545899B2, “Luciferase enzymes for use with thermostable luciferins in bioluminescent assays” (Promega Corporation, priority 2018, dated 2026).

Tests used:
[1] = Differential scanning fluorimetry (DSF) analysis; format: physicochemical; conditions: Table 12
How it was run: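 Enzymes mixed with Sypro Orange at 5× final, heated 30–95° C at 1° C per minute with fluorescence read every 60 s. Storage buffer 50 mM HEPES pH 7.5, 100 mM NaCl, 2 mM EDTA, or for luciferase variants 20 mM HEPES pH 7.5, 200 mM NaCl, 1 mM EDTA; per-minute fluorescence change plotted against temperature.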

[2] = Kinetic analysis of thermostable variants with 400 fM-4 mM CS0280 (Table 12); format: biochemical; conditions: 4 mM ATP
Description: Table 12 includes representative results of kinetic analysis of the thermostable variants with 400 fM-4 mM CS0280. This panel of enzyme variants have a combination of improved thermostability and brightness with CS0280 relative to their progenitor enzyme variants MK134 and MK137.

[3] = Kinetic analysis of thermostable variants with D/L-luciferin (Tables 13, 14); format: biochemical; conditions: 2 mM ATP
Excerpt: (§1) Tables 13 and 14 include representative results of kinetic analysis of the thermostable variants with D/L luciferin, CS0333, and CS0280. The panel of enzyme variants highlight amino acid substitutions that further improve upon MK0137 in maximum luminescence (Vmax) or Km in different buffers with the different substrates tested (D/L-luciferin, CS0333, and CS0280). In particular, enzyme variants MK0151 and MK153 show improvements relative to MK0137 across multiple buffers with multiple substrates.

[4] = Kinetic analysis of thermostable variants with CS0280 (Tables 13, 14); format: biochemical; conditions: 2 mM ATP
Excerpt: as §1

[5] = Kinetic analysis of thermostable variants with CS0333 (Tables 13, 14); format: biochemical; conditions: 2 mM ATP
Excerpt: as §1

B1: MK0141: SEQ ID NO: 108; H244W+S193A+N228D+L305F+S306P+I109V+C38R+F55I+Y108F+A316W+Y339M+T342S+V348I+T284A (protein)
chain: MADKNILYGPEPFYPLEDGTAGEQMFDALSRYAAIPGRIALTNAHTKENVLYEEILKLSCRLAESFKKYGLKQNDTIAVCSENSLQFFLPVIASLYLGIIVAPVNDKFVERELIHSLGIVKPRIVFCSKNTFQKVLNVKSKLKSIETIIILDLNEDLGGYQCLNNFISQNSDSNLDVKKFKPYSFNRDDQVAAIMFSSGTTGLPKGVMLTHKNIVARFSIAKDPTFGDAINPTSAILTVIPFHWGFGMMTTLGYFTCGFRVVLMHTFEEKLFLQSLQDYKVESALLVPTLMAFLAKSALVEKYDFPHLKEIASGGWPLSKEIGEMVKKRFKLNFVRQGMGLSETTSAILITPKGDAKPGSTGKIVPLHAVKVVDPTTGKILGPNEPGELYFKGPMIMKGYYNNEEATKAIIDNDGWLRSGDIAYYDNDGHFYIVDRLKSLIKYKGYQVAPAEIEGILLQHPYIVDAGVTGIPDEAAGELPAAGVVVQTGKYLNEQIVQDYVASQVSTAKWLRGGVKFLDEIPKGSTGKIDRKVLRQMLEKHTNGHHHHHHHH
[1]
  DSF Tm (° C.): 73 °C
[2]; BrightGlo Buffer
  Km: 7.12 µM
  Vmax (RLU): 1,701,019 RLU
[2]; Detection Reagent Buffer
  Km: 40.6 µM
  Vmax (RLU): 89,238 RLU

B2: MK0142: SEQ ID NO: 109; H244W+S193A+N228D+L305F+S306P+I109V+C38R+F55I+Y108F+A316W+Y339M+T342S+V348I+T289R (protein)
chain: MADKNILYGPEPFYPLEDGTAGEQMFDALSRYAAIPGRIALTNAHTKENVLYEEILKLSCRLAESFKKYGLKQNDTIAVCSENSLQFFLPVIASLYLGIIVAPVNDKFVERELIHSLGIVKPRIVFCSKNTFQKVLNVKSKLKSIETIIILDLNEDLGGYQCLNNFISQNSDSNLDVKKFKPYSFNRDDQVAAIMFSSGTTGLPKGVMLTHKNIVARFSIAKDPTFGDAINPTSAILTVIPFHWGFGMMTTLGYFTCGFRVVLMHTFEEKLFLQSLQDYKVESTLLVPRLMAFLAKSALVEKYDFPHLKEIASGGWPLSKEIGEMVKKRFKLNFVRQGMGLSETTSAILITPKGDAKPGSTGKIVPLHAVKVVDPTTGKILGPNEPGELYFKGPMIMKGYYNNEEATKAIIDNDGWLRSGDIAYYDNDGHFYIVDRLKSLIKYKGYQVAPAEIEGILLQHPYIVDAGVTGIPDEAAGELPAAGVVVQTGKYLNEQIVQDYVASQVSTAKWLRGGVKFLDEIPKGSTGKIDRKVLRQMLEKHTNGHHHHHHHH
[1]
  DSF Tm (° C.): 71 °C
[2]; BrightGlo Buffer
  Km: 4.98 µM
  Vmax (RLU): 1,409,786 RLU
[2]; Detection Reagent Buffer
  Km: 32.3 µM
  Vmax (RLU): 70,257 RLU

B3: MK0147: SEQ ID NO: 113; H244W+S193A+N228D+L305F+S306P+I109V+C38R+F55I+Y108F+A316W+Y339M+T342S+V348I+W510R (protein)
chain: MADKNILYGPEPFYPLEDGTAGEQMFDALSRYAAIPGRIALTNAHTKENVLYEEILKLSCRLAESFKKYGLKQNDTIAVCSENSLQFFLPVIASLYLGIIVAPVNDKFVERELIHSLGIVKPRIVFCSKNTFQKVLNVKSKLKSIETIIILDLNEDLGGYQCLNNFISQNSDSNLDVKKFKPYSFNRDDQVAAIMFSSGTTGLPKGVMLTHKNIVARFSIAKDPTFGDAINPTSAILTVIPFHWGFGMMTTLGYFTCGFRVVLMHTFEEKLFLQSLQDYKVESTLLVPTLMAFLAKSALVEKYDFPHLKEIASGGWPLSKEIGEMVKKRFKLNFVRQGMGLSETTSAILITPKGDAKPGSTGKIVPLHAVKVVDPTTGKILGPNEPGELYFKGPMIMKGYYNNEEATKAIIDNDGWLRSGDIAYYDNDGHFYIVDRLKSLIKYKGYQVAPAEIEGILLQHPYIVDAGVTGIPDEAAGELPAAGVVVQTGKYLNEQIVQDYVASQVSTAKRLRGGVKFLDEIPKGSTGKIDRKVLRQMLEKHTNGHHHHHHHH
[1]
  DSF Tm (° C.): 71 °C
[2]; BrightGlo Buffer
  Km: 7.12 µM
  Vmax (RLU): 1,101,042 RLU
[2]; Detection Reagent Buffer
  Km: 26.1 µM
  Vmax (RLU): 62,099 RLU

B4: MK0139: SEQ ID NO: 107; H244W+S193A+N228D+L305F+S306P+I109V+C38R+F55I+Y108F+A316W+Y339M+T342S+V348I+I240V (protein)
chain: MADKNILYGPEPFYPLEDGTAGEQMFDALSRYAAIPGRIALTNAHTKENVLYEEILKLSCRLAESFKKYGLKQNDTIAVCSENSLQFFLPVIASLYLGIIVAPVNDKFVERELIHSLGIVKPRIVFCSKNTFQKVLNVKSKLKSIETIIILDLNEDLGGYQCLNNFISQNSDSNLDVKKFKPYSFNRDDQVAAIMFSSGTTGLPKGVMLTHKNIVARFSIAKDPTFGDAINPTSAILTVVPFHWGFGMMTTLGYFTCGFRVVLMHTFEEKLFLQSLQDYKVESTLLVPTLMAFLAKSALVEKYDFPHLKEIASGGWPLSKEIGEMVKKRFKLNFVRQGMGLSETTSAILITPKGDAKPGSTGKIVPLHAVKVVDPTTGKILGPNEPGELYFKGPMIMKGYYNNEEATKAIIDNDGWLRSGDIAYYDNDGHFYIVDRLKSLIKYKGYQVAPAEIEGILLQHPYIVDAGVTGIPDEAAGELPAAGVVVQTGKYLNEQIVQDYVASQVSTAKWLRGGVKFLDEIPKGSTGKIDRKVLRQMLEKHTNGHHHHHHHH
[1]
  DSF Tm (° C.): 72 °C
[2]; BrightGlo Buffer
  Km: 15.7 µM
  Vmax (RLU): 764,421 RLU
[2]; Detection Reagent Buffer
  Km: 128 µM
  Vmax (RLU): 35,633 RLU

B5: MK0146: SEQ ID NO: 112; H244W+S193A+N228D+L305F+S306P+I109V+C38R+F55I+Y108F+A316W+Y339M+T342S+V348I+L437R (protein)
chain: MADKNILYGPEPFYPLEDGTAGEQMFDALSRYAAIPGRIALTNAHTKENVLYEEILKLSCRLAESFKKYGLKQNDTIAVCSENSLQFFLPVIASLYLGIIVAPVNDKFVERELIHSLGIVKPRIVFCSKNTFQKVLNVKSKLKSIETIIILDLNEDLGGYQCLNNFISQNSDSNLDVKKFKPYSFNRDDQVAAIMFSSGTTGLPKGVMLTHKNIVARFSIAKDPTFGDAINPTSAILTVIPFHWGFGMMTTLGYFTCGFRVVLMHTFEEKLFLQSLQDYKVESTLLVPTLMAFLAKSALVEKYDFPHLKEIASGGWPLSKEIGEMVKKRFKLNFVRQGMGLSETTSAILITPKGDAKPGSTGKIVPLHAVKVVDPTTGKILGPNEPGELYFKGPMIMKGYYNNEEATKAIIDNDGWLRSGDIAYYDNDGHFYIVDRRKSLIKYKGYQVAPAEIEGILLQHPYIVDAGVTGIPDEAAGELPAAGVVVQTGKYLNEQIVQDYVASQVSTAKWLRGGVKFLDEIPKGSTGKIDRKVLRQMLEKHTNGHHHHHHHH
[1]
  DSF Tm (° C.): 72 °C
[2]; BrightGlo Buffer
  Km: 4.21 µM
  Vmax (RLU): 1,114,607 RLU
[2]; Detection Reagent Buffer
  Km: 33.3 µM
  Vmax (RLU): 55,964 RLU

B6: MK0145: SEQ ID NO: 111; H244W+S193A+N228D+L305F+S306P+I109V+C38R+F55I+Y108F+A316W+Y339M+T342S+V348I+D435G (protein)
chain: MADKNILYGPEPFYPLEDGTAGEQMFDALSRYAAIPGRIALTNAHTKENVLYEEILKLSCRLAESFKKYGLKQNDTIAVCSENSLQFFLPVIASLYLGIIVAPVNDKFVERELIHSLGIVKPRIVFCSKNTFQKVLNVKSKLKSIETIIILDLNEDLGGYQCLNNFISQNSDSNLDVKKFKPYSFNRDDQVAAIMFSSGTTGLPKGVMLTHKNIVARFSIAKDPTFGDAINPTSAILTVIPFHWGFGMMTTLGYFTCGFRVVLMHTFEEKLFLQSLQDYKVESTLLVPTLMAFLAKSALVEKYDFPHLKEIASGGWPLSKEIGEMVKKRFKLNFVRQGMGLSETTSAILITPKGDAKPGSTGKIVPLHAVKVVDPTTGKILGPNEPGELYFKGPMIMKGYYNNEEATKAIIDNDGWLRSGDIAYYDNDGHFYIVGRLKSLIKYKGYQVAPAEIEGILLQHPYIVDAGVTGIPDEAAGELPAAGVVVQTGKYLNEQIVQDYVASQVSTAKWLRGGVKFLDEIPKGSTGKIDRKVLRQMLEKHTNGHHHHHHHH
[3]; BrightGlo Buffer
  Km: 0.136 µM
  Vmax (RLU): 334,536 RLU
[3]; Detection Reagent Buffer
  Km: 0.227 µM
  Vmax (RLU): 41,310 RLU
[4]; BrightGlo Buffer
  Km: 5.72 µM
  Vmax (RLU): 368,599 RLU
[4]; Detection Reagent Buffer
  Km: 391 µM
  Vmax (RLU): 38,794 RLU
[1]
  DSF Tm (° C.): 72 °C
[2]; BrightGlo Buffer
  Km: 11.9 µM
  Vmax (RLU): 1,193,838 RLU
[2]; Detection Reagent Buffer
  Km: 50.6 µM
  Vmax (RLU): 66,768 RLU
[5]; BrightGlo Buffer
  Km: 6.83 µM
  Vmax (RLU): 2,891,897 RLU
[5]; Detection Reagent Buffer
  Km: 21.5 µM
  Vmax (RLU): 591,292 RLU

B7: MK0144: SEQ ID NO: 110; H244W+S193A+N228D+L305F+S306P+I109V+C38R+F55I+Y108F+A316W+Y339M+T342S+V348I+K353R (protein)
chain: MADKNILYGPEPFYPLEDGTAGEQMFDALSRYAAIPGRIALTNAHTKENVLYEEILKLSCRLAESFKKYGLKQNDTIAVCSENSLQFFLPVIASLYLGIIVAPVNDKFVERELIHSLGIVKPRIVFCSKNTFQKVLNVKSKLKSIETIIILDLNEDLGGYQCLNNFISQNSDSNLDVKKFKPYSFNRDDQVAAIMFSSGTTGLPKGVMLTHKNIVARFSIAKDPTFGDAINPTSAILTVIPFHWGFGMMTTLGYFTCGFRVVLMHTFEEKLFLQSLQDYKVESTLLVPTLMAFLAKSALVEKYDFPHLKEIASGGWPLSKEIGEMVKKRFKLNFVRQGMGLSETTSAILITPRGDAKPGSTGKIVPLHAVKVVDPTTGKILGPNEPGELYFKGPMIMKGYYNNEEATKAIIDNDGWLRSGDIAYYDNDGHFYIVDRLKSLIKYKGYQVAPAEIEGILLQHPYIVDAGVTGIPDEAAGELPAAGVVVQTGKYLNEQIVQDYVASQVSTAKWLRGGVKFLDEIPKGSTGKIDRKVLRQMLEKHTNGHHHHHHHH
[1]
  DSF Tm (° C.): 73 °C
[2]; BrightGlo Buffer
  Km: 10.5 µM
  Vmax (RLU): 1,586,262 RLU
[2]; Detection Reagent Buffer
  Km: 35.4 µM
  Vmax (RLU): 43,744 RLU
